This is an account of results in US20120172293A1 (Takeda / Millennium, published 2012).

Starred links: 1 amine or outer side, 2 acyl side, 3 side chain; linkers in the order of their positions; H or OH if unused. Non-standard residues stand in square brackets, D forms with d. *: point of attachment. Imidazole4carbonyl = O=C(c1cnc[nH]1)*; 4Pal = N[C@@H](Cc1ccncc1)C(=O)O; Cha = N[C@@H](CC1CCCCC1)C(=O)O; Isonicotinoyl = O=C(c1ccncc1)*; Suc = O=C(CCC(=O)[*:2])[*:1]; Isobutyryl = CC(C)C(=O)*; Aib = CC(C)(N)C(=O)O; βAla = NCCC(=O)O

B1: Ac-[D-Pro24, Pya(4)26, Cha27,36, Aib28,31, Lys30]-PYY(22-36) (peptide)
peptide: Ac-AS[dP]R[4Pal][Cha][Aib]NK[Aib]TRQR[Cha]-NH2
SMILES: CC(=O)N[C@@H](C)C(=O)N[C@@H](CO)C(=O)N1CCC[C@@H]1C(=O)N[C@@H](CCCNC(=N)N)C(=O)N[C@@H](Cc1ccncc1)C(=O)N[C@@H](CC1CCCCC1)C(=O)NC(C)(C)C(=O)N[C@@H](CC(N)=O)C(=O)N[C@@H](CCCCN)C(=O)NC(C)(C)C(=O)N[C@H](C(=O)N[C@@H](CCCNC(=N)N)C(=O)N[C@@H](CCC(N)=O)C(=O)N[C@@H](CCCNC(=N)N)C(=O)N[C@@H](CC1CCCCC1)C(N)=O)[C@@H](C)O
B2: 4-Pyridinecarbonyl-[Glu23, D-Pro24, Pya(4)26, Cha27,36, Aib28,31, Lys30]-PYY(23-36) (peptide)
peptide: Isonicotinoyl-E[dP]R[4Pal][Cha][Aib]NK[Aib]TRQR[Cha]-NH2
SMILES: C[C@@H](O)[C@H](NC(=O)C(C)(C)NC(=O)[C@H](CCCCN)NC(=O)[C@H](CC(N)=O)NC(=O)C(C)(C)NC(=O)[C@H](CC1CCCCC1)NC(=O)[C@H](Cc1ccncc1)NC(=O)[C@H](CCCNC(=N)N)NC(=O)[C@H]1CCCN1C(=O)[C@H](CCC(=O)O)NC(=O)c1ccncc1)C(=O)N[C@@H](CCCNC(=N)N)C(=O)N[C@@H](CCC(N)=O)C(=O)N[C@@H](CCCNC(=N)N)C(=O)N[C@@H](CC1CCCCC1)C(N)=O
B3: Ac-[Glu23, D-Pro24, Pya(4)26, Cha27,36, Aib28,31, Lys30]-PYY(22-36) (peptide)
peptide: Ac-AE[dP]R[4Pal][Cha][Aib]NK[Aib]TRQR[Cha]-NH2
SMILES: CC(=O)N[C@@H](C)C(=O)N[C@@H](CCC(=O)O)C(=O)N1CCC[C@@H]1C(=O)N[C@@H](CCCNC(=N)N)C(=O)N[C@@H](Cc1ccncc1)C(=O)N[C@@H](CC1CCCCC1)C(=O)NC(C)(C)C(=O)N[C@@H](CC(N)=O)C(=O)N[C@@H](CCCCN)C(=O)NC(C)(C)C(=O)N[C@H](C(=O)N[C@@H](CCCNC(=N)N)C(=O)N[C@@H](CCC(N)=O)C(=O)N[C@@H](CCCNC(=N)N)C(=O)N[C@@H](CC1CCCCC1)C(N)=O)[C@@H](C)O
B4: Ac-[βAla24, Pya(4)26, Cha27,36, Aib28,31, Lys30]-PYY(23-36) (peptide)
peptide: Ac-S[βAla]R[4Pal][Cha][Aib]NK[Aib]TRQR[Cha]-NH2
SMILES: CC(=O)N[C@@H](CO)C(=O)NCCC(=O)N[C@@H](CCCNC(=N)N)C(=O)N[C@@H](Cc1ccncc1)C(=O)N[C@@H](CC1CCCCC1)C(=O)NC(C)(C)C(=O)N[C@@H](CC(N)=O)C(=O)N[C@@H](CCCCN)C(=O)NC(C)(C)C(=O)N[C@H](C(=O)N[C@@H](CCCNC(=N)N)C(=O)N[C@@H](CCC(N)=O)C(=O)N[C@@H](CCCNC(=N)N)C(=O)N[C@@H](CC1CCCCC1)C(N)=O)[C@@H](C)O
B5: Ac-[Thr23, D-Pro24, Pya(4)26, Cha27,36, Aib28,31, Lys30]-PYY(23-36) (peptide)
peptide: Ac-T[dP]R[4Pal][Cha][Aib]NK[Aib]TRQR[Cha]-NH2
SMILES: CC(=O)N[C@H](C(=O)N1CCC[C@@H]1C(=O)N[C@@H](CCCNC(=N)N)C(=O)N[C@@H](Cc1ccncc1)C(=O)N[C@@H](CC1CCCCC1)C(=O)NC(C)(C)C(=O)N[C@@H](CC(N)=O)C(=O)N[C@@H](CCCCN)C(=O)NC(C)(C)C(=O)N[C@H](C(=O)N[C@@H](CCCNC(=N)N)C(=O)N[C@@H](CCC(N)=O)C(=O)N[C@@H](CCCNC(=N)N)C(=O)N[C@@H](CC1CCCCC1)C(N)=O)[C@@H](C)O)[C@@H](C)O
B6: Ac-[Glu23, βAla24, Pya(4)26, Cha27,36, Aib28,31, Lys30]-PYY(23-36) (peptide)
peptide: Ac-E[βAla]R[4Pal][Cha][Aib]NK[Aib]TRQR[Cha]-NH2
SMILES: CC(=O)N[C@@H](CCC(=O)O)C(=O)NCCC(=O)N[C@@H](CCCNC(=N)N)C(=O)N[C@@H](Cc1ccncc1)C(=O)N[C@@H](CC1CCCCC1)C(=O)NC(C)(C)C(=O)N[C@@H](CC(N)=O)C(=O)N[C@@H](CCCCN)C(=O)NC(C)(C)C(=O)N[C@H](C(=O)N[C@@H](CCCNC(=N)N)C(=O)N[C@@H](CCC(N)=O)C(=O)N[C@@H](CCCNC(=N)N)C(=O)N[C@@H](CC1CCCCC1)C(N)=O)[C@@H](C)O
B7: 4-Imidazolecarbonyl-[Glu23, D-Pro24, Pya(4)26, Cha27,36, Aib28,31, Lys30]-PYY(23-36) (peptide)
peptide: Imidazole4carbonyl-E[dP]R[4Pal][Cha][Aib]NK[Aib]TRQR[Cha]-NH2
SMILES: C[C@@H](O)[C@H](NC(=O)C(C)(C)NC(=O)[C@H](CCCCN)NC(=O)[C@H](CC(N)=O)NC(=O)C(C)(C)NC(=O)[C@H](CC1CCCCC1)NC(=O)[C@H](Cc1ccncc1)NC(=O)[C@H](CCCNC(=N)N)NC(=O)[C@H]1CCCN1C(=O)[C@H](CCC(=O)O)NC(=O)c1cnc[nH]1)C(=O)N[C@@H](CCCNC(=N)N)C(=O)N[C@@H](CCC(N)=O)C(=O)N[C@@H](CCCNC(=N)N)C(=O)N[C@@H](CC1CCCCC1)C(N)=O
B8: 3-Carboxypropionyl-[Gln23, D-Pro24, Pya(4)26, Cha27,36, Aib28,31, Lys30]-PYY(23-36) (peptide)
peptide: Suc-Q[dP]R[4Pal][Cha][Aib]NK[Aib]TRQR[Cha]-NH2
SMILES: C[C@@H](O)[C@H](NC(=O)C(C)(C)NC(=O)[C@H](CCCCN)NC(=O)[C@H](CC(N)=O)NC(=O)C(C)(C)NC(=O)[C@H](CC1CCCCC1)NC(=O)[C@H](Cc1ccncc1)NC(=O)[C@H](CCCNC(=N)N)NC(=O)[C@H]1CCCN1C(=O)[C@H](CCC(N)=O)NC(=O)CCC(=O)O)C(=O)N[C@@H](CCCNC(=N)N)C(=O)N[C@@H](CCC(N)=O)C(=O)N[C@@H](CCCNC(=N)N)C(=O)N[C@@H](CC1CCCCC1)C(N)=O
B9: Ac-[Gln23, D-Pro24, Pya(4)26, Cha27,36, Aib28,31, Lys30]-PYY(23-36) (peptide)
peptide: Ac-Q[dP]R[4Pal][Cha][Aib]NK[Aib]TRQR[Cha]-NH2
SMILES: CC(=O)N[C@@H](CCC(N)=O)C(=O)N1CCC[C@@H]1C(=O)N[C@@H](CCCNC(=N)N)C(=O)N[C@@H](Cc1ccncc1)C(=O)N[C@@H](CC1CCCCC1)C(=O)NC(C)(C)C(=O)N[C@@H](CC(N)=O)C(=O)N[C@@H](CCCCN)C(=O)NC(C)(C)C(=O)N[C@H](C(=O)N[C@@H](CCCNC(=N)N)C(=O)N[C@@H](CCC(N)=O)C(=O)N[C@@H](CCCNC(=N)N)C(=O)N[C@@H](CC1CCCCC1)C(N)=O)[C@@H](C)O
B10: Isobutanoyl-[Glu23, D-Pro24, Pya(4)26, Cha27,36, Aib28,31, Lys30]-PYY(23-36) (peptide)
peptide: Isobutyryl-E[dP]R[4Pal][Cha][Aib]NK[Aib]TRQR[Cha]-NH2
SMILES: CC(C)C(=O)N[C@@H](CCC(=O)O)C(=O)N1CCC[C@@H]1C(=O)N[C@@H](CCCNC(=N)N)C(=O)N[C@@H](Cc1ccncc1)C(=O)N[C@@H](CC1CCCCC1)C(=O)NC(C)(C)C(=O)N[C@@H](CC(N)=O)C(=O)N[C@@H](CCCCN)C(=O)NC(C)(C)C(=O)N[C@H](C(=O)N[C@@H](CCCNC(=N)N)C(=O)N[C@@H](CCC(N)=O)C(=O)N[C@@H](CCCNC(=N)N)C(=O)N[C@@H](CC1CCCCC1)C(N)=O)[C@@H](C)O

human Y2 receptor (human), sequence (P49146 whole entry): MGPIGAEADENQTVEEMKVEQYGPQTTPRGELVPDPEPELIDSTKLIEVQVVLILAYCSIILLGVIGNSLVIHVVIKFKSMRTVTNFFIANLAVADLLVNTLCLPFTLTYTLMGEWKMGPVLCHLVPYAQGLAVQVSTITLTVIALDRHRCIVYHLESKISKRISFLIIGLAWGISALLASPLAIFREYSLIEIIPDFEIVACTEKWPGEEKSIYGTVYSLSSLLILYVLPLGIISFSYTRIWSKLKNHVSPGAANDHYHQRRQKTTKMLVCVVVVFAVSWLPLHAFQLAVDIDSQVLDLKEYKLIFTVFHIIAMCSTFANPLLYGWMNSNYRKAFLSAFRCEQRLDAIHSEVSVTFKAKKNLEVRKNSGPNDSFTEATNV

The first assay has as its target human Y2 receptor (human) (UniProt P49146). Nature of the assay: RBA: displacement of [125I]-PYY from hY2R/CHO membranes.
For the molecule B1, the IC50 Ratio (IC50 compound/IC50 PYY(3-36)) stood at 2.3.

As to B2, the IC50 Ratio (IC50 compound/IC50 PYY(3-36)) came to 1.9.

On to B3, for which the IC50 Ratio (IC50 compound/IC50 PYY(3-36)) is 5.3.

For the molecule B4, the IC50 Ratio (IC50 compound/IC50 PYY(3-36)) was found to be 1.9.

Turning to B5, the IC50 Ratio (IC50 compound/IC50 PYY(3-36)) is 1.1.

Turning to B6, the IC50 Ratio (IC50 compound/IC50 PYY(3-36)) was 7.4.

Take B7: the IC50 Ratio (IC50 compound/IC50 PYY(3-36)) stood at 1.3.

Consider B8, for which the IC50 Ratio (IC50 compound/IC50 PYY(3-36)) worked out at 2.

For B9, the IC50 Ratio (IC50 compound/IC50 PYY(3-36)) was found to be 1.3.

B10: the IC50 Ratio (IC50 compound/IC50 PYY(3-36)) came to 1.9.

The next assay shares this target. The assay is described as follows: cell-based or functional assay.
Consider B1, for which the GBA EC50 Ratio ([35S]GTPγS binding) (EC50 compound/EC50 PYY(3-36)) stood at 1.7.

For B2, the GBA EC50 Ratio ([35S]GTPγS binding) (EC50 compound/EC50 PYY(3-36)) was determined as 1.8.

As to B3, the GBA EC50 Ratio ([35S]GTPγS binding) (EC50 compound/EC50 PYY(3-36)) is 3.5.

Consider B4, for which the GBA EC50 Ratio ([35S]GTPγS binding) (EC50 compound/EC50 PYY(3-36)) worked out at 1.1.

Regarding B5, the GBA EC50 Ratio ([35S]GTPγS binding) (EC50 compound/EC50 PYY(3-36)) is 0.69.

Turning to B6, the GBA EC50 Ratio ([35S]GTPγS binding) (EC50 compound/EC50 PYY(3-36)) is 3.9.

Turning to B7, the GBA EC50 Ratio ([35S]GTPγS binding) (EC50 compound/EC50 PYY(3-36)) is 1.3.

On to B8, for which the GBA EC50 Ratio ([35S]GTPγS binding) (EC50 compound/EC50 PYY(3-36)) turned out to be 1.9.

On to B9, for which the GBA EC50 Ratio ([35S]GTPγS binding) (EC50 compound/EC50 PYY(3-36)) was 0.9.

For B10, the GBA EC50 Ratio ([35S]GTPγS binding) (EC50 compound/EC50 PYY(3-36)) amounted to 2.
